Columns and labels:
[1] = molecular target: recombinant HUXcc-His6 (Xanthomonas campestris pv. campestris); test: MST; HUXcc labelled with NT-647 (RED-NHS kit), purified HrpG titrated from 0.001 to 17 μM in a 1:1 series dilution; 1 x MST buffer (50 mM Tris, 150 mM NaCl, 10 mM MgCl2, pH 6) with 0.05% Tween; Monolith NT.115, standard treated capillaries; KD-Fit function
[2] = molecular target: HrpG (Xanthomonas campestris pv. campestris 8004) (UniProt Q8PBF6); test: MST; details: MST: 50 mM Tris-HCl pH 7.4, 150 mM NaCl, 10 mM MgCl2, 0.05% Tween-20; EMSA: 10 mM Tris-HCl pH 7.5, 50 mM KCl, 1 mM DTT, 50 ng poly(dI:dC), 0-40 uM protein …
[3] = molecular target: HrpG (Xanthomonas campestris pv. campestris …, UniProt Q8PBF6 1-262); test: MST; 10 mM MgCl2; MST: 50 mM Tris-HCl pH 7.4, 150 mM NaCl, 10 mM MgCl2, 0.05% Tween-20; EMSA: 10 mM Tris-HCl pH 7.5, 50 mM KCl, 1 mM DTT, 50 ng poly(dI:dC), 0-40 uM protein, 28 C 30 min; details: protein: recombinant; text writes HrpG-His6; chain copies: 2; label: 5'-FAM; blunt

## HrpG-His6 recombinant protein (natural protein)
[1]
  Kd: 640 nM

## hpa2p MST fragment
[2]
  Kd: 2220 nM

## hrcUp MST fragment
[2]
  Kd: 1790 nM

## hrpEp MST fragment
[2]
  Kd: 2300 nM

B1: Motif-2 (mutated HrpG motif probe) (dsDNA)
DNA 1: CTTCGAAGTGAGAACGGAATCCGGATCCGC
DNA 2: GCGGATCCGGATTCCGTTCTCACTTCGAAG
[3]
  binding result: no binding

B2: Motif-1 (HrpG consensus motif probe) (dsDNA)
DNA 1: CTTCGAAGTGAGAAATTCTATTGGATCCGC
DNA 2: GCGGATCCAATAGAATTTCTCACTTCGAAG
[3]
  Kd: 6960 ± 1440 nM
